Measurements reported in publication PMC9400459 (Science (New York, N.y.), 2022).

Biological target: SARS-CoV-2 receptor binding domain (SARS-CoV-2, UniProt P0DTC2)
Test: cell-based or functional assay

B1: S2K146 human monoclonal antibody (antibody, V domains shown)
VH: QVQLVESGGVVVQPGGSLRLSCAASGFTFHDHTMHWVRQAPGKGLEWVSLITWNGGTIHYSDSVKGRFTISRDNSKNSLYLQMNSLRTEDTALYYCAKDLGRGGWYLPSDAWGQGTLVTVSS
VL: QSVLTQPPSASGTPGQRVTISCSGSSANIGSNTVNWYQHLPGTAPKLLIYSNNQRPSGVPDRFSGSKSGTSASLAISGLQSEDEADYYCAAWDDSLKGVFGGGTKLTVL
  IC50 of neutralisation of authentic SARS-CoV-2 (isolate USA-WA1/2020, lineage A): 10 ng/mL
